Key:
[1] = biological target: T1, Human CD3ε stalk-Fc(knob)-Avi/CD3δ stalk-Fc(hole) (human); assay: SPR, biotinylated human CD3ε/δ on SA chip, monovalent IgG; response normalised to anti-huIgG capture and referenced to the unstressed sample; after 2 weeks at pH 6.0/40 °C
T1 construct: Heterodimeric Fc fusion; also called human CD3ε/δ; Human CD3 epsilon stalk-Fc(knob)-Avi
Method: (§1) All SPR experiments were performed on a Biacore T200 instrument (GE Healthcare) at 25° C. with HBS-P+ (10 mM HEPES, 150 mM NaCl pH 7.4, 0.05% Surfactant P20) as running and dilution buffer. Biotinylated human CD3ε/δ (see Example 3, SEQ ID NOs 41 and 42) as well as biotinylated anti-huIgG (Capture Select, Thermo Scientific, #7103262100) were immobilized on a Series S Sensor Chip SA (GE Healthcare, #29104992), resulting in surface densities of at least 1000 resonance units (RU). Anti-CD3 antibodies with a concentration of 2 μg/ml were injected for 30 s at a flow rate of 5 μl/min, and dissociation was monitored for 120 s. The surface was regenerated by injecting 10 mM glycine pH 1.5 for 60 s. Bulk refractive index differences were corrected by subtracting blank injections and by subtracting the response obtained from a blank control flow cell. For evaluation, the binding response 5 seconds after injection end was taken. To normalize the binding signal, the CD3 binding was divided by the anti-huIgG response (the signal (RU) obtained upon capture of the CD3 antibody on the immobilized anti-huIgG antibody). The relative binding activity was calculated by referencing each temperature stressed sample to the corresponding, non-stressed sample.

[2] = biological target: T1, Human CD3ε stalk-Fc(knob)-Avi/CD3δ …; assay: SPR, biotinylated human CD3ε/δ on SA chip, monovalent IgG; response normalised to anti-huIgG capture and referenced to the unstressed sample; after 2 weeks at pH 7.4/37 °C
Method: as §1

[3] = biological target: T1, Human CD3ε stalk-Fc(knob)-Avi/CD3δ …; assay: SPR, Biacore T200, 25 °C; monovalent IgG captured by anti-PG antibody on C1 chip, CD3ε/δ-Fc as analyte; triplicates; footnote: values may not be fully reliable, bad fit quality
Method: (§2) Kinetic constants were derived using the Biacore T200 Evaluation Software (GE Healthcare Life Sciences), to fit rate equations for 1:1 Langmuir binding by numerical integration. The half-life (t_{1/2}) of the interaction was calculated using the formula t_{1/2}=ln 2/koff.
(§3) To analyze the interaction to CD3, IgG molecules were captured for 240 s at 50 nM with a flow rate of 5 μl/min. Human and cynomolgus CD3ε stalk-Fc(knob)-Avi/CD3δ-stalk-Fc(hole) were passed at a concentration of 0.061-250 nM with a flow rate of 30 μl/min through the flow cells for 300 s. The dissociation was monitored for 800 s.

[4] = biological target: T2, Cynomolgus CD3ε stalk-Fc(knob)-Avi/CD3δ stalk-Fc(hole) (cynomolgus); assay: as above
T2 construct: Heterodimeric Fc fusion; also called cynomolgus CD3ε/δ
T2 sequence (chain, as listed by the source mutant limits assumed, chain 1 of 2): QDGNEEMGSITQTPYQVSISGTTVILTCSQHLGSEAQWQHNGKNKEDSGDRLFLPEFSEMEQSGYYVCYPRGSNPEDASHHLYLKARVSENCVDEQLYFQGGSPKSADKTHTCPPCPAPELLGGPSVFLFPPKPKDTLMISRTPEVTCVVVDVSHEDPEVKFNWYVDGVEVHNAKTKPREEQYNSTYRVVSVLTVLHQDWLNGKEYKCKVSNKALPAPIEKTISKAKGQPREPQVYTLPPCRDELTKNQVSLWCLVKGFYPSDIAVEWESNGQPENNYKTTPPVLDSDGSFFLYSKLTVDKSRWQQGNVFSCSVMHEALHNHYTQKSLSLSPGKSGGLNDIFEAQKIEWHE
T2 sequence (chain, as listed by the source mutant limits assumed, chain 2 of 2): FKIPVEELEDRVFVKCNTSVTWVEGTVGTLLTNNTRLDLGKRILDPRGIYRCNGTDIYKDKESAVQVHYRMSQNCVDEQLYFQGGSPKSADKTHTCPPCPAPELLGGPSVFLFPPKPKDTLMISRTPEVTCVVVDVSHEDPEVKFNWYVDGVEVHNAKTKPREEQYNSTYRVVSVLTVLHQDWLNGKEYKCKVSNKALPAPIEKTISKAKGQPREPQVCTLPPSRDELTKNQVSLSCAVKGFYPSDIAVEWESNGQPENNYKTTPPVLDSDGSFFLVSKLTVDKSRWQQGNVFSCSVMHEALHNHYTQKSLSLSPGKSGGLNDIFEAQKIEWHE
Method: as §2, §3

[5] = biological target: T1, Human CD3ε stalk-Fc(knob)-Avi/CD3δ …; assay: SPR, Biacore T200, 25 °C; monovalent IgG captured by anti-PG antibody on C1 chip, CD3ε/δ-Fc as analyte; 1:1 Langmuir fit; triplicates; footnote: values may not be fully reliable, bad fit quality
Method: as §2, §3

[6] = biological target: T2, Cynomolgus CD3ε stalk-Fc(knob)-Avi/CD3δ …; assay: as above
Method: as §2, §3

B1: Anti-CD3 antibody clone P004.042 in monovalent human IgG1 format (antibody, V domains shown)
VH: EVQLLESGGGLVQPGGSLRLSCAASGFQFDNYAMNWVRQAPGKGLEWVSRIRTKYNEYATYYADSVKGRFTISRDDSKNTLYLQMNSLRAEDTAVYYCVRASNFPQSYVSYFGYWGQGTLVTVSS
VL: QAVVTQEPSLTVSPGGTVTLTCGSSTGAVTTSNYANWVQEKPGQAFRGLIGGTNKRAPGTPARFSGSLLGGKAALTLSGAQPEDEAEYYCALWYSNLWVFGGGTKLTVL
notes: Monovalent human IgG1 with crossed VH and VL domains; knob-into-hole; P329G L234A L235A; also called P004.042 (monovalent IgG)
binding activity [%] [1]: 101% | binding activity [%] [2]: 98% | t1/2 [3]: 1.36 min | t1/2 [4]: 1.43 min | Kd [5]: 1.36 nM | koff [5]: 0.00852 s⁻¹ | kon [5]: 6.28e+06 M⁻¹ s⁻¹ | Kd [6]: 0.439 nM | koff [6]: 0.00809 s⁻¹ | kon [6]: 1.85e+07 M⁻¹ s⁻¹
